In patent US7285618 (JAPAN TOBACCO, dated 2007):

Target: G protein (Gi) purified from rabbit liver (rabbit)
Assay: cell-based or functional assay

GTPase activity of Gi: ~6 fold
Binder: LSFLIPAGWVLSHLDHYKRSSAA [cytochrome C oxidase subunit peptide-1 (COSP-1)]
